Assay results from FireProtDB.
Several values for one entry are separate records, joined by “and”; a condition that tells them apart may be missing. Equal values may be shown once.

B1: Glutathione S-transferase Mu 1, P04905 (parent)
chain: MPMILGYWNVRGLTHPIRLLLEYTDSSYEEKRYAMGDAPDYDRSQWLNEKFKLGLDFPNLPYLIDGSRKITQSNAIMRYLARKHHLCGETEEERIRADIVENQVMDNRMQLIMLCYNPDFEKQKPEFLKTIPEKMKLYSEFLGKRPWFAGDKVTYVDFLAYDILDQYHIFEPKCLDAFPNLKDFLARFEGLKKISAYMKSSRYLSTPIFSKLAQWSNK
B2: T132I, Q2YD82 (parent)
chain: MDCAEGRAANLPCNHSTISGNEYVYWYRQIHSQGPQYIIHGLKNNETNEMASLIITEDRKSSTLILPHATLRDTAVYYCIVYDYGQNFVFGPGTRLSVLPYIQNPDPAVYQLRDSKSSDKSVCLFTDFDSQTNVSQSKDSDVYITDKTVLDMRSMDFKSNSAVAWSNKSDFACANAFNNSIIPEDTFFPSPESSCDVKLVEKSFETDTNLNFQNLSVIGFRILLLKVAGFNLLMTLRLWSS
B3: N154D|K396R, Q8GB52 (parent)
chain: MLKKVLSCCIAATFGIYSASSLAQSSVINSTENSQQPIAPLVLASSDDAITDRYIVVLKQPQMLMNDAAGLQQFTQQTVGLMANSFSIKTDDVFDSSIIGFVANLDALQLKQLRRDSRVEYIEQDQILSIDPVVSNEAVQSNAIWGLDRIDQRNLPLDRNYNANFDGFGVTAYVIDTGVNNNHEEFGGRSVSGYDFVDNDADSSDCNGHGTHVAGTIGGSQYGVAKNVNIVGVRVLSCSGSGTTSGVISGVDWVAQNASGPSVANMSLGGGQSTALDSAVQGAIQSGVSFMLAAGNSNADACNTSPARVPSGVTVGSTTSSDSRSSFSNWGSCVDLFAPGSQIKSAWYDGGYKTISGTSMATPHVAGVAALYLQENNGLTPLQLTGLLNSRASENKVSDTRGTTNKLLYSLADSGCEPDCGGPTPGPDPDGKLVSGVPVNGLSGSRGQKDYFYMDLQQGQQLTVVTIGGTGDADLYLRFGDKPTLNTWDCRPYRSGNSETCTVNVTQSGRYHVMLNAYSAYSGLTLQANF
B4: V92L, O26594 (parent)
chain: MRCAFMKKYILIVMLALMVAGCVSEDGNYTYNEGVQDSNVDNPVNDSWTSDSQDKVNDTAEKKSSYEASGSCYHVVDGDTIDVEGVGRIRLVGVNTPERGQPGYREAKDFVKSMCLGRTVQLDIDDAKRHDRYGRVLAVVYVDGVNLNRELLRRGYAEVMYIPPSEFNPYGWT
B5: Beta-xylanase, O68541 (parent)
chain: MNLSRRQLLALTSAGIAMGQASKLAAATKAAEQTGLKSAYKDNFLIGAALNATIASGADERLNTLIAKEFNSITPENCMKWGVLRDAQGQWNWKDADAFVAFGTKHNLHMVGHTLVWHSQIHDEVFKNADGSYISKAALQKKMEEHITTLAGRYKGKLAAWDVVNEAVGDDLKMRDSHWYKIMGDDFIYNAFTLANEVDPKAHLMYNDYNIERTGKREATVEMIERLQKRGMPIHGLGIQGHLGIDTPPIAEIEKSIIAFAKLGLRVHFTELDVDVLPSVWELPVAEVSTRFEYKPERDPYTKGLPQEMQDKLAKRYEDLFKLFIKHSDKIDRATFWGVSDDASWLNGFPIPGRTNYPLLFDRKLQPKDAYFRLLDLKR
B6: Alpha-lactalbumin, P00712 (parent)
chain: MMSFVSLLLVGILFHATQAEQLTKCEVFQKLKDLKDYGGVSLPEWVCTAFHTSGYDTQAIVQNNDSTEYGLFQINNKIWCKDDQNPHSRNICNISCDKFLDDDLTDDIVCAKKILDKVGINYWLAHKALCSEKLDQWLCEKL
B7: Superoxide dismutase [Cu-Zn], P00445 (parent)
chain: MVQAVAVLKGDAGVSGVVKFEQASESEPTTVSYEIAGNSPNAERGFHIHEFGDATNGCVSAGPHFNPFKKTHGAPTDEVRHVGDMGNVKTDENGVAKGSFKDSLIKLIGPTSVVGRSVVIHAGQDDLGKGDTEESLKTGNAGPRPACGVIGLTN
B8: Adenylate kinase, P16304 (parent)
chain: MNLVLMGLPGAGKGTQGERIVEDYGIPHISTGDMFRAAMKEETPLGLEAKSYIDKGELVPDEVTIGIVKERLGKDDCERGFLLDGFPRTVAQAEALEEILEEYGKPIDYVINIEVDKDVLMERLTGRRICSVCGTTYHLVFNPPKTPGICDKDGGELYQRADDNEETVSKRLEVNMKQTQPLLDFYSEKGYLANVNGQQDIQDVYADVKDLLGGLKK
B9: Dihydrofolate reductase type 2, P00383 (parent)
chain: MERSSNEVSNPVAGNFVFPSNATFGMGDRVRKKSGAAWQGQIVGWYCTNLTPEGYAVESEAHPGSVQIYPVAALERIN
B10: Ribose import binding protein RbsB, P02925 (parent)
chain: MNMKKLATLVSAVALSATVSANAMAKDTIALVVSTLNNPFFVSLKDGAQKEADKLGYNLVVLDSQNNPAKELANVQDLTVRGTKILLINPTDSDAVGNAVKMANQANIPVITLDRQATKGEVVSHIASDNVLGGKIAGDYIAKKAGEGAKVIELQGIAGTSAARERGEGFQQAVAAHKFNVLASQPADFDRIKGLNVMQNLLTAHPDVQAVFAQNDEMALGALRALQTAGKSDVMVVGFDGTPDGEKAVNDGKLAATIAQLPDQIGAKGVETADKVLKGEKVQAKYPVDLKLVVKQ
B11: Phosphoglycerate kinase, P00560 (parent)
chain: MSLSSKLSVQDLDLKDKRVFIRVDFNVPLDGKKITSNQRIVAALPTIKYVLEHHPRYVVLASHLGRPNGERNEKYSLAPVAKELQSLLGKDVTFLNDCVGPEVEAAVKASAPGSVILLENLRYHIEEEGSRKVDGQKVKASKEDVQKFRHELSSLADVYINDAFGTAHRAHSSMVGFDLPQRAAGFLLEKELKYFGKALENPTRPFLAILGGAKVADKIQLIDNLLDKVDSIIIGGGMAFTFKKVLENTEIGDSIFDKAGAEIVPKLMEKAKAKGVEVVLPVDFIIADAFSADANTKTVTDKEGIPAGWQGLDNGPESRKLFAATVAKAKTIVWNGPPGVFEFEKFAAGTKALLDEVVKSSAAGNTVIIGGGDTATVAKKYGVTDKISHVSTGGGASLELLEGKELPGVAFLSEKK

Variants of: B1
Conditions: Rattus norvegicus; pH 6.5; 20 °C; Urea; CD; NaH2PO4 20 mM; NaCl 0.1 M; reversible: Yes; structure 1GSB; whole UniProt chain shown

Row | Variant | denaturant m value [kcal/mol/M] | denaturant midpoint (higher = more stable) [M] | unfolding free energy [kcal/mol]
1 | F57S R82A | 2 | 4.6 | 10.1

Variants of: B2
Conditions: Homo sapiens; Thermal; fluorescence; structure 6U07; whole UniProt chain shown

Row | Variant | Tm [°C] | change of melting temperature, mutant - wild type (higher = more stable) [°C]
2 | T132I | 55.7 | 0.8
3 | S121F | 58.5 | 5.2
4 | D151S | 53.3 | -1.6

Variants of: B3
Conditions: Vibrio sp. PA-44; pH 8.6; Thermal; CD; Glycine 25 mM; NaCl and CaCl2 100 mM and 15 mM; structure 1SH7; whole UniProt chain shown

Row | Variant | Tm | change of melting temperature, mutant - wild type (higher = more stable)
5 | N154D K396R | 65.1 °C | 1.5 °C
6 | N154D | 66.3 °C and 68.2 °C | 2.7 °C and 3.1 °C

Variants of: B4
Conditions: Methanothermobacter thermautotrophicus (strain ATCC 29096 / DSM 1053 / JCM 10044 / NBRC 100330 / Delta H); pH 7; 20 °C; GdnHCl; Fluorescence; Sodium phosphate sodium chloride 25 mM 100 mM; whole UniProt chain shown

Row | Variant | ddG of mutation (higher = less stable) [kcal/mol] | denaturant m value [kcal/mol/M] | denaturant midpoint (higher = more stable) [M] | unfolding free energy [kcal/mol]
7 | V92L | 1.1 | 1.03 | 0.2 | 1.3

Variants of: B5
Conditions: Cellvibrio mixtus; pH 7.5; Thermal; DSC; MOPS 20 mM; CaCl2 1 mM; reversible: No; structure 1UR1; whole UniProt chain shown

Row | Variant | Tm [°C] | change of melting temperature, mutant - wild type (higher = more stable) [°C]
8 | G348D | 64.6 | 6
9 | A334V G348D | 66.6 | 8
10 | A334V | 62.1 | 3.5

Variants of: B6
Conditions: Capra hircus; pH 7; 25 °C; Thermal; CD; sodium cacodylate 50 mM; CaCl2 1 mM; structure 1HFY; whole UniProt chain shown

Row | Variant | ddG of mutation (higher = less stable) [kcal/mol]
11 | T48V | -1.86
12 | T48I | -1.37

Variants of: B7
Conditions: Saccharomyces cerevisiae (strain ATCC 204508 / S288c); Thermal; Fluorescence; structure 1JK9; whole UniProt chain shown

Row | Variant | change of melting temperature, mutant - wild type (higher = more stable) [°C]
13 | G94A | 20

Variants of: B8
Conditions: Bacillus subtilis (strain 168); pH 7.4; Thermal; DSC; Hepes 50 mM; reversible: No; structure 2EU8; whole UniProt chain shown

Row | Variant | change of melting temperature, mutant - wild type (higher = more stable) [°C]
14 | D23K Y103M E114Q S169T Q180A S187D A193V V208L D210V K217Q | 5
15 | L3I G17A D23K K69R G73S D75S Y103M K105R E114Q D118E V119E S169T Q180A D184A S187D E188S G190E Y191V A193V Y205F D210V L211I K217Q | 11.6
16 | L3I G17A D23K K69R G73S D75S I99S Y103M K105R E114Q D118E V119E M121I E122A S169T Q180A D184A S187D E188S G190E Y191V A193V Y205F D210V L211I K217Q | 12.5

Variants of: B9
Conditions: Escherichia coli; pH 5; 22 °C; GdnHCl; CD; phosphate 10 mM; structure 1VIE; whole UniProt chain shown

Row | Variant | unfolding free energy
17 | W38F | 15.3 kcal/mol and 15.6 kcal/mol
18 | W45F | 13.6 kcal/mol and 12.7 kcal/mol

Variants of: B10
Conditions: Escherichia coli (strain K12); pH 7.7; 25 °C; GdnHCl; Fluorescence; HEPES 10 mM; reversible: yes; structure 2DRI; whole UniProt chain shown

Row | Variant | unfolding free energy [kcal/mol]
19 | A52T | 1.8

Variants of: B11
Conditions: Saccharomyces cerevisiae (strain ATCC 204508 / S288c); pH 7.5; 22 °C; GdnHCl; CD; Tris 20 mM; structure 3PGK; whole UniProt chain shown

Row | Variant | ddG of mutation (higher = less stable) [kcal/mol] | denaturant midpoint (higher = more stable) [M] | unfolding free energy [kcal/mol]
20 | W309Y | 3.6 | 0.55 | 4.2
